# From publication PMC12350170 (2025)
# T1: MBP-PHAX103–196 (wild type) (human, UniProt Q9H814 103-196)
# T1 chain: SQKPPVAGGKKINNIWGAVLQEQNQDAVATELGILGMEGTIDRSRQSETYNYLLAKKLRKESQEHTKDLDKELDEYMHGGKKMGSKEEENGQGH
# Legend:
# [1] = target: T1, MBP-PHAX103–196 (wild type); experiment: ITC
# [2] = target: MBP-PHAX103–196 R147E, Y152E, Y154E (human, UniProt Q9H814 103-196, R147E | Y152E | Y154E); experiment: ITC; CBC bound to m7GpppG
# [3] = target: T1, MBP-PHAX103–196 (wild type); experiment: ITC; CBC bound to m7GpppG
binder,measurement,setting,value
Human nuclear cap-binding complex (CBC): CBP80ΔNLS with CBP20 (complex) chain 1: KTSDANETEDHLESLICKVGEKSACSLESNLEGLAGVLEADLPNYKSKILRLLCTVARLLPEKLTIYTTLVGLLNARNYNFGGEFVEAMIRQLKESLKANNYNEAVYLVRFLSDLVNCHVIAAPSMVAMFENFVSVTQEEDVPQVRRDWYVYAFLSSLPWVGKELYEKKDAEMDRIFANTESYLKRRQKTHVPMLQVWTADKPHPQEEYLDCLWAQIQKLKKDRWQERHILRPYLAFDSILCEALQHNLPPFTPPPHTEDSVYPMPRVIFRMFDYTDDPEGPVMPGSHSVERFVIEENLHCIIKSHWKERKTCAAQLVSYPGKNKIPLNYHIVEVIFAELFQLPAPPHIDVMYTTLLIELCKLQPGSLPQVLAQATEMLYMRLDTMNTTCVDRFINWFSHHLSNFQFRWSWEDWSDCLSQDPESPKPKFVREVLEKCMRLSYHQRILDIVPPTFSALCPANPTCIYKYGDESSNSLPGHSVALCLAVAFKSKATNDEIFSILKDVPNPNQDDDDDEGFSFNPLKIEVFVQTLLHLAAKSFSHSFSALAKFHEVFKTLAESDEGKLHVLRVMFEVWRNHPQMIAVLVDKMIRTQIVDCAAVANWIFSSELSRDFTRLFVWEILHSTIRKMNKHVLKIQKELEEAKEKLARQHKRRSDDDDRSSDRKDGVLEEQIERLQEKVESAQSEQKNLFLVIFQRFIMILTEHLVRCETDGTSVLTPWYKNCIERLQQIFLQHHQIIQQYMVTLENLLFTAELDPHILAVFQQFCALQA chain 2: MSGGLLKALRSDSYVELSQYRDQHFRGDNEEQEKLLKKSCTLYVGNLSFYTTEEQIYELFSKSGDIKKIIMGLDKMKKTACGFCFVEYYSRADAENAMRYINGTRLDDRIIRTDWDAGFKEGRQYGRGRSGGQVRDEYRQDYDAGRGGYGKLAQNQ,Kd,[1],1860 nM
same,Kd,[2],1970 nM
same,Kd,[3],1450 nM
